Data: patent US20040018971A1 (published 2004)

Assays:
HLA-A*0201 [1] = target: T1, HLA-A*0201 (human); test: inhibition of 125I-labelled standard peptide binding to purified HLA, gel filtration; ratio = IC50 of standard / IC50 of test peptide
T1 construct: also called HLA-A2.1

HLA-A*0201 [2] = target: T2, HLA-A*0201 (human); test: competitive inhibition of 125I-labeled probe peptide binding to purified HLA-A*0201
T2 construct: also called HLA-A2.1; A2.1

B1: HER2/neu peptide, position 442, 9 amino acids (peptide)
peptide: SLTLQGLGI
relative binding ratio (HLA-A*0201 [1]): 0.0003 ratio to standard peptide

B2: Her2/neu.144 (peptide)
peptide: SLTEILKGGV
IC50 (HLA-A*0201 [2]): ≤ 500 nM

B3: HER2/neu peptide, position 144, 10 amino acids (peptide)
peptide: SLTEILKGGV
notes: also called Her2/neu.144
relative binding ratio (HLA-A*0201 [1]): 0.015 ratio to standard peptide
